The results in this text go back to publication PMC3153611.

The assay concerns the target SRPK1 (UniProt Q96SB4). In words: rapid quench single-turnover, fast-phase amplitude. As to conditions: reference: 0P complex (no pre-phosphorylation).
With “SRSF1 (aka ASF/SF2) (from UniProt Q07955) 1P complex (1.2 phosphates in RS1)”, the “other: fast-phase amplitude αp at 1 µM SRPK1” value (from here on “other: fast-phase amplitude αp”) is “same; reference 1.0 ± 0.18”.

As to “SRSF1 (aka ASF/SF2) (from UniProt Q07955) 4P complex (4 phosphates in RS1)”, the “other: fast-phase amplitude αp” value is recorded as “same; reference 1.0 ± 0.18”.

“SRSF1 (aka ASF/SF2) (from UniProt Q07955) 6P complex (6.3 phosphates in RS1)”: the “other: fast-phase amplitude αp” value is reported as “weaker; reference 1.0 ± 0.18”.

Take “SRSF1 (aka ASF/SF2) (from UniProt Q07955) 8P complex (8.3 phosphates in RS1)”: the “other: fast-phase amplitude αp” value is listed as “weaker; reference 1.0 ± 0.18”.
